Experimental data published in US6790633.

target: T1, rat brain farnesyl:protein transferase (rat, UniProt Q04631 2-377; Q02293 1-437); test: cell-based or functional assay

| Binder | concentration giving 50% inhibition | fold decrease in affinity for the enzyme against CVIM, as estimated by the concentration required for 50% inhibition | fold increase in affinity for the enzyme against CVIM |
| --- | --- | --- | --- |
| CEIM | 1.5 µM | – | – |
| CKIM | 0.7 µM | – | – |
| CGIM | 4 µM | – | – |
| CVIA | – | > 30 fold | – |
| CPIM | 8 µM | – | – |
| CVFM | 0.025 µM | – | 6 fold |
| CVIF | 0.5 µM | – | – |
| CVPM | 20 µM | – | – |
| CVAM | – | > 30 fold | – |
| CVIL | 12 µM | – | – |

target: T1, rat brain farnesyl:protein transferase; test: cell-based or functional assay; remark: another data set of the same source

| Binder | Concentration For 50% Inhibition |
| --- | --- |
| CVVM | 0.15 µM |
| CLLL | 22 µM |
| CIKS | > 100 µM |
| CSIM | 0.2 µM |
| CVLS | 3 µM |
| CAIL | 100 µM |
| CVLM | 0.15 µM |
| CVIA | 5 µM |
| CAIM | 0.15 µM |
| CCVQ | 0.35 µM |
| CTVA | 30 µM |
| CIIM | 0.15 µM |
| CIIC | 0.35 µM |
| CVIS | 1 µM |
| CLIL | 17 µM |
| CVIM | 0.15 µM |
| CVIL | 11 µM |
| CIIS | 0.35 µM |
